Reference: PMC9670274 (ACS Omega, 2022)
Each block holds one molecule with its values, some of them ahead of it.

Columns and labels:
[1] = target: lactate dehydrogenase from Lactobacillus helsingborgensis (Lactobacillus helsingborgensis); experiment: SEC-MALS
SEC-MALS = target: the molecule itself; experiment: SEC-MALS

stoichiometry N [1]: 8
Molecule: lactate dehydrogenase from Lactobacillus helsingborgensis (enzyme)

B1: lactate dehydrogenase from Lactobacillus johnsonii (enzyme)
chain: MTTYYKGFPQSTREEKLHMVNLDELEHEAKYVMPEAAYYYVASGAENEWTWRNNTQAFNHFQIVPRALTGMQNPELNTEFLGMKLKTPVMICPIACHGIANAEAEIDTAKGAKAAGALFAMSTYANKSVQEVQSAVGDSPRFMQLYLSKNWDFNKMVIEESVKAGFTGFFLTVDALVSGYREANLRTNFTYPVPLAFFNEWNGGKGEGQSVAQMYASSAQNIGPDDIRKIKEIADVPVIVKGVECAEDAMLAIGTGADGIVVSNHGGREVDGAPATIDVLPEIAKAVRSCDHRVPIILDGGVRRGSHVFKALALGADLVGIGRPFLYGLALGGAQGVQSVIEQLNKELLIDMQLTGCKTIEDIKHAKIDHINYSADWGISSTSRSVMKPYPVTKENQLTGEAADAVSGASRH
stoichiometry N (SEC-MALS): 8
